Test results as given in the supplement of paper PMC10567573.

B1: TPD52L1 (parent)
chain: ISKKFGDMSYSIRHSISMPAMRNS

Variants of: B1
Test: protein stability index of a GFP-peptide fusion (GPS, HEK-293T) (PSI 1-6); higher = more stable
Conditions: c terminus: a fixed tail appended
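Note: lentivirally expressed fusions sorted by FACS into six bins by GFP to DsRed ratio, PSI derived from sequencing read proportions per bin multiplied by bin number.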

Point of comparison: ISKKFGDMSYSIRHSIGMPAMRNS [S17G], protein stability index 2.42. Against it:
- ISKKFGDMSCSIRHSISMPAMRNS [Y10C] — lower, 2.17
- ISKKFGDMSESIRHSISMPAMRNS [Y10E] — higher, 2.88
- ISKKFGDMSMSIRHSISMPAMRNS [Y10M] — lower, 2.37
- ISKKFGDMSISIRHSISMPAMRNS [Y10I] — lower, 2.23
- ISKKFGDMSDSIRHSISMPAMRNS [Y10D] — higher, 2.98
- ISKKFGDMSTSIRHSISMPAMRNS [Y10T] — higher, 2.72
- ISKKFGDMSNSIRHSISMPAMRNS [Y10N] — higher, 2.73
- ISKKFGDMSVSIRHSISMPAMRNS [Y10V] — higher, 2.94
- ISKKFGDMSPSIRHSISMPAMRNS [Y10P] — higher, 2.97
- ISKKFGDMSGSIRHSISMPAMRNS [Y10G] — higher, 3.06
- ISKKFGDMSASIRHSISMPAMRNS [Y10A] — higher, 2.91
- ISKKFGDMSLSIRHSISMPAMRNS [Y10L] — lower, 1.88
- ISKKFGDMSWSIRHSISMPAMRNS [Y10W] — lower, 1.93
- ISKKFGDMSQSIRHSISMPAMRNS [Y10Q] — higher, 2.76
- ISKKFGDMSHSIRHSISMPAMRNS [Y10H] — higher, 2.69
- ISKKFGDMSFSIRHSISMPAMRNS [Y10F] — lower, 2.01
- ISKKFGDMSKSIRHSISMPAMRNS [Y10K] — higher, 2.57
- ISKKFGDMSRSIRHSISMPAMRNS [Y10R] — lower, 2.41
- ISKKFGDMSSSIRHSISMPAMRNS [Y10S] — higher, 2.84
- ISKKFGDTSYSIRHSISMPAMRNS [M8T] — lower, 2.33
- ISKKFGDRSYSIRHSISMPAMRNS [M8R] — higher, 2.53
- ISKKFGDVSYSIRHSISMPAMRNS [M8V] — lower, 2.38
- ISKKFGDLSYSIRHSISMPAMRNS [M8L] — lower, 2.27
- ISKKFGDDSYSIRHSISMPAMRNS [M8D] — higher, 2.78
- ISKKFGDISYSIRHSISMPAMRNS [M8I] — lower, 2.13
- ISKKFGDSSYSIRHSISMPAMRNS [M8S] — lower, 2.4
- ISKKFGDPSYSIRHSISMPAMRNS [M8P] — higher, 3.46
- ISKKFGDQSYSIRHSISMPAMRNS [M8Q] — higher, 2.85
- ISKKFGDHSYSIRHSISMPAMRNS [M8H] — lower, 2.33
- ISKKFGDWSYSIRHSISMPAMRNS [M8W] — the same, 2.42
- ISKKFGDNSYSIRHSISMPAMRNS [M8N] — higher, 2.88
- ISKKFGDCSYSIRHSISMPAMRNS [M8C] — lower, 1.96
- ISKKFGDGSYSIRHSISMPAMRNS [M8G] — lower, 2.31
- ISKKFGDESYSIRHSISMPAMRNS [M8E] — higher, 3.18
- ISKKFGDYSYSIRHSISMPAMRNS [M8Y] — lower, 1.54
- ISKKFGDFSYSIRHSISMPAMRNS [M8F] — lower, 2.19
- ISKKFGDASYSIRHSISMPAMRNS [M8A] — higher, 2.87
- ISKKFGDKSYSIRHSISMPAMRNS [M8K] — higher, 2.48
- ISKKFGDMSYSIRHSIHMPAMRNS [S17H] — lower, 2.15
- ISKKFGDMSYSIRHSIMMPAMRNS [S17M] — lower, 2.17
- ISKKFGDMSYSIRHSITMPAMRNS [S17T] — lower, 2.11
- ISKKFGDMSYSIRHSIRMPAMRNS [S17R] — lower, 2.17
- ISKKFGDMSYSIRHSINMPAMRNS [S17N] — lower, 2.25
- ISKKFGDMSYSIRHSIKMPAMRNS [S17K] — lower, 2.13
- ISKKFGDMSYSIRHSIPMPAMRNS [S17P] — lower, 2.28
- ISKKFGDMSYSIRHSIVMPAMRNS [S17V] — lower, 2.12
- ISKKFGDMSYSIRHSIQMPAMRNS [S17Q] — higher, 2.48
- ISKKFGDMSYSIRHSIIMPAMRNS [S17I] — lower, 2.03
- ISKKFGDMSYSIRHSIDMPAMRNS [S17D] — lower, 2.36
- ISKKFGDMSYSIRHSIEMPAMRNS [S17E] — lower, 2.1
- ISKKFGDMSYSIRHSILMPAMRNS [S17L] — lower, 1.8
- ISKKFGDMSYSIRHSICMPAMRNS [S17C] — lower, 1.92
- ISKKFGDMSYSIRHSIAMPAMRNS [S17A] — lower, 2.01
- ISKKFGDMSYSIRHSIFMPAMRNS [S17F] — lower, 2.13
- ISKKFGYMSYSIRHSISMPAMRNS [D7Y] — lower, 2.31
- ISKKFGDMLYSIRHSISMPAMRNS [S9L] — lower, 1.42
- ISKKFGDMEYSIRHSISMPAMRNS [S9E] — lower, 2.34
- ISKKFGDMRYSIRHSISMPAMRNS [S9R] — lower, 2.22
- ISKKFGDMAYSIRHSISMPAMRNS [S9A] — lower, 2.23
- ISKKFGDMHYSIRHSISMPAMRNS [S9H] — lower, 2.38
- ISKKFGDMPYSIRHSISMPAMRNS [S9P] — lower, 2.03
- ISKKFGDMQYSIRHSISMPAMRNS [S9Q] — lower, 2.31
- ISKKFGDMVYSIRHSISMPAMRNS [S9V] — lower, 2.03
- ISKKFGDMNYSIRHSISMPAMRNS [S9N] — lower, 2.36
- ISKKFGDMDYSIRHSISMPAMRNS [S9D] — lower, 2.36
- ISKKFGDMCYSIRHSISMPAMRNS [S9C] — lower, 1.88
- ISKKFGDMYYSIRHSISMPAMRNS [S9Y] — lower, 1.98
- ISKKFGDMFYSIRHSISMPAMRNS [S9F] — lower, 2
- ISKKFGDMMYSIRHSISMPAMRNS [S9M] — lower, 1.51
- ISKKFGDMKYSIRHSISMPAMRNS [S9K] — lower, 2.37
- ISKKFGDMGYSIRHSISMPAMRNS [S9G] — lower, 2.27
- ISKKFGDMTYSIRHSISMPAMRNS [S9T] — lower, 2
- ISKKFGDMIYSIRHSISMPAMRNS [S9I] — higher, 2.59
- ISKKFGDMWYSIRHSISMPAMRNS [S9W] — higher, 2.69
- ISKKFGDMSYSIRHSVSMPAMRNS [I16V] — lower, 2.32
- ISKKFGDMSYSIRHSMSMPAMRNS [I16M] — higher, 2.9
- ISKKFGDMSYSIRHSESMPAMRNS [I16E] — higher, 3.25
- ISKKFGDMSYSIRHSPSMPAMRNS [I16P] — higher, 2.99
- ISKKFGDMSYSIRHSHSMPAMRNS [I16H] — lower, 2.36
- ISKKFGDMSYSIRHSASMPAMRNS [I16A] — higher, 2.76
- ISKKFGDMSYSIRHSCSMPAMRNS [I16C] — lower, 2.02
- ISKKFGDMSYSIRHSSSMPAMRNS [I16S] — higher, 2.77
- ISKKFGDMSYSIRHSFSMPAMRNS [I16F] — lower, 1.61
- ISKKFGDMSYSIRHSWSMPAMRNS [I16W] — lower, 1.97
- ISKKFGDMSYSIRHSYSMPAMRNS [I16Y] — lower, 2.12
- ISKKFGDMSYSIRHSNSMPAMRNS [I16N] — higher, 2.61
- ISKKFGDMSYSIRHSDSMPAMRNS [I16D] — higher, 2.6
- ISKKFGDMSYSIRHSTSMPAMRNS [I16T] — higher, 2.67
- ISKKFGDMSYSIRHSQSMPAMRNS [I16Q] — higher, 2.72
- ISKKFGDMSYSIRHSGSMPAMRNS [I16G] — higher, 2.51
- ISKKFGDMSYSIRHSLSMPAMRNS [I16L] — higher, 2.46
- ISKKFGDMSYSIRHSRSMPAMRNS [I16R] — higher, 2.81
- ISKKFGDMSYSIRHSKSMPAMRNS [I16K] — higher, 2.98
